{
  "source": "paper PMC6684798",
  "about": "“Structural basis for the target specificity of actin histidine methyltransferase SETD3” (Nature Communications, 2019)",
  "biological_target": "T1, SETD3 (Homo sapiens, UniProt Q86TU7)",
  "T1 construct": "GST (cleaved yes); made in house; host or cells: Escherichia coli BL21(DE3) CodonPlus",
  "T1 sequence (Q86TU7 1-594)": "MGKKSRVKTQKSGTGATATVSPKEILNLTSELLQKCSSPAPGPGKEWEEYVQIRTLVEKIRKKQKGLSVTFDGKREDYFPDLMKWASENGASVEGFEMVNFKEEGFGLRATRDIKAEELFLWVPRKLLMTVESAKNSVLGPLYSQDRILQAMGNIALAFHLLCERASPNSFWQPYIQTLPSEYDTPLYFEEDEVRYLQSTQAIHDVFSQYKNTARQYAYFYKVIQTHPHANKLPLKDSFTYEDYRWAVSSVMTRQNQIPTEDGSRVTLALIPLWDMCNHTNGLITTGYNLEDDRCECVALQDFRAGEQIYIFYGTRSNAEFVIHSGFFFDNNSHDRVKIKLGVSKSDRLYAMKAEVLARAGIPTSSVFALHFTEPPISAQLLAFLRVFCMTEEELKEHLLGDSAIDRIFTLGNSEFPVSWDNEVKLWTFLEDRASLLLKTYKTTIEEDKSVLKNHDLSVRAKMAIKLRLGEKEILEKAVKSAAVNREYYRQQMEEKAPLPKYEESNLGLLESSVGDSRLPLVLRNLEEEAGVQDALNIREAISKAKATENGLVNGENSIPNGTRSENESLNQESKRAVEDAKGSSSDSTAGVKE",
  "experiment": "SETD3 activity on K73(66-80) at two temperatures (Supplementary Fig. 3c)",
  "format": "biochemical",
  "conditions": "overnight, pH 8.0, [E]=15 µM, [SAM]=100 µM, [S]=700 µM",
  "description": "Recombinant human SETD3 (pXC2003) was expressed as a GST-fusion[22] in Escherichia coli BL21(DE3) CodonPlus^TM cells (Stratagene). The SETD3 mutants at residue 255 (N255A; pXC2093 and N255V; pXC2094) were generated with Q5 Site-Directed Mutagenesis Kit (New England Biolabs), confirmed by sequencing and the same protocol for expression and purification were followed. Briefly, the purification was conducted in a BIO-RAD NGC^TM system using a three-column chromatography of glutathione-sepharose, HiTrap Q-HP and Superdex 200. The GST tag was removed by PreScisson Protease (purified in-house). The purified SETD3 proteins at a concentration ~25–35 mg/ml were kept at −80 °C in storage buffer for future use [20 mM Tris (pH 8.0), 200 mM NaCl, 5% glycerol, and 0.5 mM tris (2-carboxyethyl) phosphine (TCEP)].\nFor H73 (residues 66–80), a reaction mixture contained 20 mM Tris/HCl (pH 8.0), 50 mM NaCl, 0.1 mg/ml BSA, 1 mM DTT, 0.18 µM SETD3, 40 µM SAM, and 20 µM H73 peptide, the reaction was performed for 20 min (Supplementary Fig. 3b). For K73 (residues 66–80), a reaction mixture contained 20 mM Tris/HCl (pH 8.0), 50 mM NaCl, 0.1 mg/ml BSA, 1 mM DTT, 15 µM SETD3, 100 µM SAM, and 700 µM K73 peptide, the reaction was performed overnight (Supplementary Fig. 3c). All reactions were terminated by the addition of TFA to 0.1% (v/v). […]\nconditions optimized for H73(66-80) (red line): [E]=0.18 µM, [SAM]=40 µM, [S]=20 µM, pH 8.0 at room temperature for indicated reaction time. b, SETD3 activity on H73(66-80) at two difference temperatures under the conditions of [E]=0.18 µM, [SAM]=40 µM, [SH7 3]=20 µM at pH 8. 0 for 20 min reaction. c, SETD3 activity on K73 (66-80 ) at room temperature (~22 °C) and 37 °C under the conditions of increased amounts of [E]=15 µM, [SAM]=100 µM and [S K73]=700 µM at pH 8.0 for overnight reaction. Data represent the mean ± SD of N number of independent determinations (N=2 in panels a and b and N=4 in panel c) performed in duplicate. Source data are provided as a Source Data file. d, A stereo image of omit electron density (Fo -Fc) omitting the side chain of K73 in the active site contoured at 4 s above the mean.\n(1 picture or pasted object on this page, not shown here)",
  "data": [
    {"substance": "K73(66–80): K73-containing (H73K) actin peptide, residues 66–80 (TLKYPIEKGIVTNWD; UniProt P60709 66-80, looked up, variant H73K)", "values": [
      {"measurement": "CH3 transferred", "setting": "37 °C, replicate 1", "result": 1.773, "unit": "µM"},
      {"measurement": "CH3 transferred", "setting": "37 °C, replicate 2", "result": 2.482, "unit": "µM"},
      {"measurement": "CH3 transferred", "setting": "37 °C, replicate 3", "result": 3.183, "unit": "µM"},
      {"measurement": "CH3 transferred", "setting": "37 °C, replicate 4", "result": 3.325, "unit": "µM"},
      {"measurement": "CH3 transferred", "setting": "RT (~22 °C), replicate 1", "result": 0.6813, "unit": "µM"},
      {"measurement": "CH3 transferred", "setting": "RT (~22 °C), replicate 2", "result": 0.8003, "unit": "µM"},
      {"measurement": "CH3 transferred", "setting": "RT (~22 °C), replicate 3", "result": 0.7535, "unit": "µM"},
      {"measurement": "CH3 transferred", "setting": "RT (~22 °C), replicate 4", "result": 0.7963, "unit": "µM"}
    ]}
  ]
}
